Data from US5972599, “High affinity nucleic acid ligands of cytokines” (NeXstar Pharmaceuticals, Inc.).

Key:
[1] = target: T1, IL-4 (Homo sapiens, UniProt P05112 P05112:25-153); experiment: filter; truncate; conditions: tags: R&D Systems
[2] = target: T2, IFN-gamma (Homo sapiens, UniProt P01579 P01579:24-161); experiment: filter; truncate; conditions: tags: Genzyme (Cambridge MA); Upstate Biotechnology for early SELEX rounds; chain copies: 2 inferred
[3] = target: T2, IFN-gamma; experiment: filter; biphasic 3.2/314 nM; conditions: tags: Genzyme (Cambridge MA); Upstate Biotechnology for early SELEX rounds; chain copies: 2 inferred
Procedure: (§1) The determination of equilibrium dissociation constants (Kds) for RNA pools was made subsequent to rounds 5, 8, 12, and 17 to monitor the progress of each SELEX. The Kds of RNA pools for mouse IFN-gamma (Genzyme Inc., Cambridge Mass.) were also determined after rounds 8 and 17. Kds were determined for individual ligands after cloning and sequencing of RNA pools and truncations (described below). Nitrocellulose filter binding was used to determine Kds as follows: filter discs were placed into a vacuum manifold and wetted with 5 ml of mPBS buffer. ^32P-labeled-RNA was incubated with serial dilutions of IFN-gamma in binding buffer for 5–10 min at 37° C. to allow binding to occur. […] The filter discs were dried and counted in a liquid scintillation counter (Beckmann Instruments, Palo Alto Calif.). Equilibrium dissociation constants were determined by least square fitting of the data points using the Kaleidagraph™ graphics program (Synergy Software, Reading Pa.). […] Biphasic binding constants were calculated according to standard procedures. Kds were determined by least square fitting of the data points using the Kaleidagraph™ graphics program.
(§2) The Kds of individual RNAs within each group were determined by nitrocellulose filter binding as described above. The Kds were determined using either a monophasic or biphasic least squares fit of the data.

[4] = target: T1, IL-4; experiment: filter; full-length; mPBS 1 mM Mg, 0.01% HSA, 37 C; conditions: tags: R&D Systems
[5] = target: T2, IFN-gamma; experiment: filter; biphasic 9.3/232 nM; conditions: tags: Genzyme (Cambridge MA); Upstate Biotechnology for early SELEX rounds; chain copies: 2 inferred
Procedure: as §1, §2

[6] = target: T3, TNF-alpha (Homo sapiens, UniProt P01375 P01375:77-233); experiment: filter; class II; conditions: tags: Genzyme or R&D Systems; chain copies: 3 inferred
[7] = target: T3, TNF-alpha; experiment: competition; U937 cells; 3 points; conditions: tags: Genzyme or R&D Systems; chain copies: 3 inferred
Procedure: (§3) A receptor binding competition assay was used to determine the bioactivity of the RNA ligands. ^125I labelled hTNFα at 0.1 nM was incubated in 50 µl of binding medium (PBS with 0.5 mM Mg^++, 0.2% BSA, 0.02% sodium azide, 1 U/µl RNasin) for 15 min at 4° C. with serially diluted competitors at 10^-4 to 10^-11 M, and 1×10^4/µl U937 cells. Duplicate aliquots were subsequently removed, centrifuged through 2:1 dibutyl-phthalate:dinonyl-phthalate mixture to separate free and bound ^125I labelled hTNFα, and the radioactivity in the pellet was measured on a gamma counter. Nonspecific binding was determined by inclusion of a 200-fold molar excess of unlabeled TNF.

[8] = target: T3, TNF-alpha; experiment: filter; class I; conditions: tags: Genzyme or R&D Systems; chain copies: 3 inferred
[9] = target: T2, IFN-gamma; experiment: filter; full-length; conditions: tags: Genzyme (Cambridge MA); Upstate Biotechnology for early SELEX rounds; chain copies: 2 inferred
Procedure: as §1, §2

[10] = target: T2, IFN-gamma; experiment: filter; biphasic 4.4/716 nM; conditions: tags: Genzyme (Cambridge MA); Upstate Biotechnology for early SELEX rounds; chain copies: 2 inferred
Procedure: as §1, §2

[11] = target: T3, TNF-alpha; experiment: competition; U937 cells; conditions: tags: Genzyme or R&D Systems; chain copies: 3 inferred
Procedure: as §3

[12] = target: T1, IL-4; experiment: filter; full-length; conditions: tags: R&D Systems
[13] = target: T1, IL-4; experiment: competition; 0.7 nM 125I-IL-4, H-9 cells; conditions: tags: R&D Systems
Procedure: Following incubation, the tubes were spun (150×g, 5 min, 4° C.) and the supernatant was aspirated. The cell pellet was resuspended in 200 μl RPMI-HSA. 100 μl aliquots were centrifuged through a cushion of an equal volume of phthalate oils (dibutyl/dioctyl, 1:1 v/v). The tube was rapidly frozen in dry ice/ethanol and the tip containing the cell pellet was cut off and placed in a vial for gamma counting.

[14] = target: T2, IFN-gamma; experiment: filter; biphasic 6.8/320 nM; mPBS 1 mM Mg, 0.01% HSA, 37 C; conditions: tags: Genzyme (Cambridge MA); Upstate Biotechnology for early SELEX rounds; chain copies: 2 inferred
Procedure: as §1, §2

T1 sequence (P05112 25-153, one chain of several): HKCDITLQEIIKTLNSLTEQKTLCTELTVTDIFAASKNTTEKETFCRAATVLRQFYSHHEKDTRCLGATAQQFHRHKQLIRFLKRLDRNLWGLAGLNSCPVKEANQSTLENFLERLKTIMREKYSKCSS
T3 sequence (P01375 77-233, one chain of several): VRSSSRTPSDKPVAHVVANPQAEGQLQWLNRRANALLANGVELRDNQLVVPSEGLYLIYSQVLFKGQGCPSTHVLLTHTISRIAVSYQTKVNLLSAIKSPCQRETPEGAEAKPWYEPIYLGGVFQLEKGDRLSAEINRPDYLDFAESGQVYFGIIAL
T2 sequence (P01579 24-161, one chain of several): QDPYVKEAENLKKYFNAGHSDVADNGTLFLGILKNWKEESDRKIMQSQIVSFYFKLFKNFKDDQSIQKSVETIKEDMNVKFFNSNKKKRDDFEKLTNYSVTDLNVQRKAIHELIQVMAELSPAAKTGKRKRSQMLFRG

## GGGAAACGGCUGUAACAAACAAGGUGGGGGGCCACACA (ssRNA, 2'-F all C and U) [IL-4 2'F-9 truncate]
[1]
  Kd: 18 nM

## GGGAGGACGAUGCGGCAGGUAAUUACAUGAAGGUGGGUUAGGUA (ssRNA, 2'-NH2 all C and U) [IFN-gamma 2'NH2-30 truncate]
[2]
  Kd: 11 nM

B1: IFN-gamma 2'F-6 (ssRNA)
RNA: GGGAGGACGAUGCGGUGGAGUUUUAAUCUUACUUCCUACUCUUGCUCCACUGGGUCAGACGACUCGCCCGA
modifications: 2'-F all C and U
[3]
  Kd: 3.2 nM

B2: IL-4 2'F-9 (ssRNA)
RNA: GGGAGACAAGAAUAAACGCUCAAACGGCUGUAACAAACAAGGUGGGGGGCCACACAGAGCGGGUUCGACUUCGACAGGAGGCUCACAACAGGC
modifications: 2'-F all C and U
[4]
  Kd: 14.7 nM

B3: IFN-gamma 2'F-16 (ssRNA)
RNA: GGGAGGACGAUGCGGCAUCCCUAGAGCAGCCAGCCGGAAAGAAGUCACGCCUGCUCAGACGACUCGCCCGA
modifications: 2'-F all C and U
[5]
  Kd: 9.3 nM

B4: TNF 4A (ssRNA)
RNA: GGGAGCUCAGAAUAAACGCUCAACGCACUCGGACGGAAUCUCCGUAGGACACGUUCGACAUGAGGCCCGGAUCCGGC
[6]
  Kd: 320 nM

B5: TNF 16C (ssRNA)
RNA: GGGAGCUCAGAAUAAACGCUCAACCUGGUGGUCGUGCGGCUGUCGCCUCAAGGUUCGACAUGAGGCCCGGAUCCGGC
[7]
  Ki: ~313 nM
[8]
  Kd: 200 nM

B6: IFN-gamma 2'F-28 (ssRNA)
RNA: GGGAGGACGAUGCGGAGGGUUGGGAGGGGUCCUUCUUUUCGUCUGCGUGGACCGUCAGACGACUCGCCCGA
modifications: 2'-F all C and U
[9]
  Kd: 35 nM

## GGGAGGACGAUGCGGAGGGUUGGGAGGGGUCCUUCUU (ssRNA, 2'-F all C and U) [IFN-gamma 2'F-28 truncate]
[2]
  Kd: 53 nM

B7: IFN-gamma 2'F-1 truncate (ssRNA)
RNA: GGGAGGACGAUGCGGACACCGUUAAUCUGAGGCCCUGUCCUAUUCCUUCACGCCUCAGA
modifications: 2'-F all C and U
[10]
  Kd: 4.4 nM

B8: IL-4 2'NH2-29 truncate (ssRNA)
RNA: GGGACGCUCAAGAGCUGGUGAGCCACGUAUACGGCCUUAGGGGCUUGGGCG
modifications: 2'-NH2 all C and U
[1]
  Kd: 10 nM

B9: TNF 6A (ssRNA)
RNA: GGGAGCUCAGAAUAAACGCUCAACCACUGGCUAGGAACUCGAGUACUGGGUGGUUCGACAUGAGGCCCGGAUCCGGC
[11]
  Ki: 9100 nM
[6]
  Kd: 120 nM

B10: TNF 14C (ssRNA)
RNA: GGGAGCUCAGAAUAAACGCUCAACGGCUUGCAGGUCGCCGAAAUGACCGCACAUUCGACAUGAGGCCCGGAUCCGGC
[11]
  Ki: 930 nM
[6]
  Kd: 60 nM

B11: IL-4 2'F/NH2-9 (ssRNA)
RNA: GGGAGACAAGAAUAAACGCUCAAAGAGUGCAGGUCUGGGGCGCCACAAUUACAACGGCAAUAAUUCGACAGGAGGCUCACAACAGGC
modifications: 2'-F all C, 2'-NH2 all U
[12]
  Kd: 3.3 nM
[13]
  IC50: ~40 nM

B12: TNF 23A (ssRNA)
RNA: GGGAGCUCAGAAUAAACGCUCAACCUCAUCCUCGCACGCCAUCGCCUGAACCGUUCGACAUGAGGCCCGGAUCCGGC
[7]
  Ki: ~241 nM
[8]
  Kd: 52 nM

B13: IFN-gamma 2'F/NH2-3 (ssRNA)
RNA: GGGAGGACGAUGCGGUUCAGAGGGUAGGUAAGUGGGAGGAAAAAUGCCGUAUCGCCUCAGACGACUCGCCCGA
modifications: 2'-F all C, 2'-NH2 all U
[9]
  Kd: 106 nM

B14: IFN-gamma 2'F-1 (ssRNA)
RNA: GGGAGGACGAUGCGGACACCGUUAAUCUGAGGCCCUGUCCUAUUCCUUCACGCCUCAGACGACUCGCCCGA
modifications: 2'-F all C and U
[14]
  Kd: 6.8 nM
